Earlier results in publication PMC5811392.

Key:
p53 (Homo sapiens) = p53 (Homo sapiens) (UniProt P04637)
p53 DBD (Homo sapiens) = p53 DBD (Homo sapiens) (UniProt P04637)
p53 DBD (Homo sapiens), sequence (P04637 94-312): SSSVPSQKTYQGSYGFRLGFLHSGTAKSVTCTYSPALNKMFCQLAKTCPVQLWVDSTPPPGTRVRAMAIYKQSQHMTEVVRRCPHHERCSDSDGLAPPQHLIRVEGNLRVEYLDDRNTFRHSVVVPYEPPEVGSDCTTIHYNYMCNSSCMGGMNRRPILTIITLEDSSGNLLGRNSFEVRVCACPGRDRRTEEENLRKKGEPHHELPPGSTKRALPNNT

BCL-xL, sequence (Q07817 whole entry): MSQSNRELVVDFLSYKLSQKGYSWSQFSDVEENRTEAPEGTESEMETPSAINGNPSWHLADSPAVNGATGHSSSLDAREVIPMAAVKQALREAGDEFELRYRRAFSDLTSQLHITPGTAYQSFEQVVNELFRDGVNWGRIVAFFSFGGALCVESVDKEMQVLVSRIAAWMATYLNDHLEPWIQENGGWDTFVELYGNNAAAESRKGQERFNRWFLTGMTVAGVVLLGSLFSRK
p53 (Homo sapiens), sequence (P04637 whole entry): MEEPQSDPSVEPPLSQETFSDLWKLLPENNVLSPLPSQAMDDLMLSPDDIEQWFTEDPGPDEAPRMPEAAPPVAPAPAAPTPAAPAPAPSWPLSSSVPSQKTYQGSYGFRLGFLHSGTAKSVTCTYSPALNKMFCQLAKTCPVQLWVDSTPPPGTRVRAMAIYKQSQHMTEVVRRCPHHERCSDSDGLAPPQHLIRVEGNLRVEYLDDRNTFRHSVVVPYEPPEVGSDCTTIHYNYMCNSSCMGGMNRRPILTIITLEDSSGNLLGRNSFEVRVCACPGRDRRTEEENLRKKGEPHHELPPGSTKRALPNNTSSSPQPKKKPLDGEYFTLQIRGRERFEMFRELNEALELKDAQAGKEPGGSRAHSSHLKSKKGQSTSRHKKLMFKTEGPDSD

BCL-xL (from UniProt Q07817)
Kd (p53 (Homo sapiens)): 1 µM
Kd (p53 DBD (Homo sapiens)): 17 µM
